The supplement of paper PMC11136658

Test system: peptide library, one residue held at a place counted from the Y acceptor
Experiment: relative phosphorylation of the sub-library (ratio to the mean residue at this position); higher = residue favoured
Method in brief: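 Biotinylated Tyr-centred peptide library mixtures, each fixing one residue at one position from −5 to +5, were incubated with purified recombinant kinases in 384-well plates for 90 min with 50 μM ATP plus γ-32P-ATP. Streptavidin membranes captured the peptides, which were rinsed and quantified by phosphorimaging and ImageQuant. At each position, intensities were divided by the sum of the 18 randomized residues (16 for the Ser/Thr-free library) and multiplied by that number. Each value is phosphorylation relative to the mean randomized residue.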

Chain of TXK, construct: aa239-end, human (P42681 239-527, looked up): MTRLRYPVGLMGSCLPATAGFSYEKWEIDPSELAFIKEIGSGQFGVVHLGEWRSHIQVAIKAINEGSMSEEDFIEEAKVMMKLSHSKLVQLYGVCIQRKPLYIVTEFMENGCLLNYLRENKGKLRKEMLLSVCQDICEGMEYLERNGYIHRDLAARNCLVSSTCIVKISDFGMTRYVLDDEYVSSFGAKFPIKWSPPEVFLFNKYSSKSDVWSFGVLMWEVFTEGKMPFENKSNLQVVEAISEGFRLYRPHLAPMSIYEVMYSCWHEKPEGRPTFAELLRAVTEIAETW

TNK2, construct: aa110-476, human (from UniProt Q07912)
relative phosphorylation
Conditions	at +1	at +2	at +3	at +4	at +5	at -1	at -2	at -3	at -4	at -5
A fixed	2.37	1	0.658	1.04	1.1	0.664	1.24	1.03	1.2	1.13
D fixed	0.799	0.461	0.257	0.749	1.13	0.346	0.917	0.791	0.737	0.812
E fixed	1.01	0.72	0.202	0.835	1.03	0.323	1	0.671	0.743	0.783
F fixed	0.716	1.39	1.03	0.929	1.22	0.934	0.737	0.901	1.05	0.971
G fixed	1.5	0.489	0.492	1.71	1.08	0.562	1.25	1.18	1.23	1.47
H fixed	0.684	0.724	0.513	1.01	0.897	1.59	1	0.972	1	1.05
I fixed	0.759	1.25	3.15	0.888	0.904	1.64	0.74	0.744	0.767	0.834
K fixed	0.587	0.915	0.316	0.774	0.694	1.3	0.894	1.07	1.2	1.12
L fixed	0.684	0.964	2.32	0.742	1.15	1.73	0.694	0.911	0.779	0.787
M fixed	1.37	1.03	1.07	1.02	0.97	1.26	0.69	0.924	0.89	0.815
N fixed	0.613	0.755	0.359	0.903	0.836	0.7	1.03	1.04	0.958	0.996
P fixed	0.233	1.26	0.881	1.55	1.16	0.809	1.69	1.36	1.3	1.22
Q fixed	1.5	1.03	0.437	0.873	0.955	1.15	1.21	1.03	1.17	0.966
R fixed	0.89	1.32	0.367	0.995	0.543	1.82	1.05	1.32	1.36	1.31
S fixed	1.18	1.02	0.543	1.21	1.01	0.626	1.16	1.12	0.824	0.952
T fixed	1.05	1.25	0.94	1.03	1.14	0.936	0.987	1.02	0.762	0.951
V fixed	1.04	1.32	2.39	0.846	0.949	0.951	0.952	0.825	0.785	0.755
W fixed	1.03	1.11	2.07	0.898	1.22	0.658	0.759	1.1	1.25	1.08
pThr fixed	0.667	1.05	0.311	0.814	0.654	0.486	0.969	0.721	0.716	0.775
pTyr fixed	0.727	2.16	0.495	0.959	1.03	0.669	0.714	0.904	0.888	1

TXK, construct: aa239-end, human (from UniProt P42681)
relative phosphorylation
Conditions	at +1	at +2	at +3	at +4	at +5	at -1	at -2	at -3	at -4	at -5
A fixed	1.58	1.14	0.87	0.836	0.784	0.51	1.03	0.998	1.03	1.07
D fixed	2.77	1.02	0.409	0.931	0.726	0.678	2.01	1.85	1.81	1.32
E fixed	2.53	1.15	0.345	0.797	0.692	0.83	1.99	2.25	1.53	1.32
F fixed	0.463	1.14	1.52	1.03	1.26	1	0.539	0.887	0.727	0.858
G fixed	1.28	0.725	0.939	1.18	1.14	0.379	1.35	1.13	1.34	1.27
H fixed	0.614	1.08	1.38	1.07	1.1	0.774	0.798	0.997	0.89	1.04
I fixed	0.981	0.782	0.907	0.835	0.76	3.78	0.515	0.553	0.641	0.782
K fixed	0.175	0.848	0.625	0.986	1.05	0.34	0.693	0.63	0.905	1.04
L fixed	0.444	0.723	1.12	0.881	0.901	2.45	0.627	0.534	0.571	0.722
M fixed	0.788	0.788	1.24	0.968	0.88	1.4	0.602	0.598	0.76	0.723
N fixed	0.539	1.3	1.24	1.05	1.1	0.638	1.24	1.25	1.17	1.06
P fixed	0.254	0.933	0.908	1.63	1.23	0.531	1.74	1.16	1.24	1.25
Q fixed	0.98	1.16	0.937	0.94	1.08	0.514	1.19	1.19	1.19	1.16
R fixed	0.207	1.14	1.01	1.13	1.21	0.27	0.605	0.64	0.858	0.944
S fixed	1.22	1.41	1.07	0.968	0.896	0.575	1.06	0.995	0.895	0.898
T fixed	1.39	1.64	0.808	1.09	1	0.948	0.87	0.928	0.908	0.807
V fixed	1.57	1.01	0.9	0.834	0.783	1.45	0.624	0.571	0.728	0.771
W fixed	0.829	1.06	1.64	0.899	1.3	0.461	0.443	0.77	0.607	0.668
pThr fixed	3.94	2.21	0.407	0.62	0.444	1.85	1.4	1.35	1.14	0.994
pTyr fixed	1.25	1.67	0.517	0.595	0.619	1.72	1.2	1.23	0.945	0.998
